How the values were obtained:
[1] = Emission value of secretion-expressed luciferase in COS-7 culture medium, coelenterazine substrate; format: biochemical; conditions: for emission values (rank order): Experiment 5
Protocol: (§1) • (1) COS-7 cells derived from the kidney of African green monkey were inoculated in a 24-well dish, and on the next day, subconfluency was attained. • (2) 25 μL of Opti-MEM (Thermo Fisher Scientific™), 400 ng (2 μL) of the plasmid, and 1 μL of P3000 (Invitrogen™, Waltham, MA) were mixed. • (3) 25 μL of Opti-MEM and 1 μL of lipofectoamine 3000 (Invitrogen™) were mixed. • (4) (2) and (3) were mixed together, followed by incubation at room temperature for 5 minutes. • (5) The mixture was added to the medium of (1). • (6) 500 μL of Dulbecco's modified Eagle's medium was added, followed by culturing the cells at 37° C. for 1 day and then collecting the medium. The medium contained secretion-expressed luciferase. • (7) To 100 μL of the medium, coelenterazine was added as a substrate at a final concentration of 5 μM, followed by measuring the emission value by using Enspire multi-mode plate reader (PerkinElmer™, Waltham, MA).
By the same manner as in Experiment 2, the emission value was measured.
(§2) The emission value was measured in the same manner as in Experiment 2 except that the final concentration of coelenterazine was changed to 0.5 μM. […] The emission value was measured in the same manner as in Experiment 2 except that the final concentration of coelenterazine was changed to 5 μM.

[2] = Emission value of secretion-expressed luciferase in COS-7 culture medium, coelenterazine h substrate; format: biochemical; conditions: Experiment 5
Protocol: as §1
as §2, with “that coelenterazine h was used as a substrate in a” for “that the”, “of 5” for “of coelenterazine was changed to 0.5”, “of 25” for “of coelenterazine was changed to 5”

[3] = Emission value of secretion-expressed luciferase in COS-7 culture medium, furimazine substrate; format: biochemical; conditions: Experiment 5; furimazine in the concentration recommended by the manufacturer
Protocol: as §1
The emission value was measured in the same manner as in Experiment 2 except that furimazine, which was available from Promega™ as a NanoLuc® substrate, was used as a substrate in the concentration recommended by the manufacturer.

[4] = Stability of protein terminus: Western blot detection of Flag-tag and His-tag in culture supernatant; conditions: secretion-expressed luciferase in COS-7 culture supernatant; Western blotting
Excerpt: In the same manner as in Experiment 2, the plasmid was transfected into COS-7 cells and culture supernatant was collected. Flag-tag added to the N terminus of each secretion-expressed luciferase and His-tag added to the C terminus thereof were detected by Western blotting (SDS-PAGE, Mini-PROTEAN TGX Gel StainFree 4-15% (Bio-Rad™, Hercules, CA)) (FIG. 17). The antibodies used were Anti 6×Histidine, Monoclonal Antibody (9C11), Peroxidase Conjugated (manufactured by FUJIFILM Wako Pure Chemical Corporation, 1:1000) and Monoclonal ANTI-FLAG (R) M2-Peroxidase (HRP) antibody produced in mouse, clone M2 (manufactured by Sigma-Aldrich™, St. Louis, MO, 1/1000), respectively, and detection was performed with Amesham Imager 680 (Cytiva™, Marlborough, MA).

[5] = Measurement of specific activity (enzyme concentrations adjusted by Western blot signal); format: biochemical
Protocol: The specific activities of NanoLuc®, ALuc30 wt, and picALuc30 were measured, with their enzyme concentrations adjusted based on the Western blot signal intensity obtained in Experiment 6.

[6] = Thermal stability of secretion-expressed picALuc30 (heat treatment, then emission value); format: physicochemical
Protocol: In the same manner as in Experiment 2, the plasmid was transfected into COS-7 cells and the medium was collected. The culture supernatant containing picALuc30 was incubated for 10 minutes at room temperature (25° C.), 40° C., 50° C., 60° C., 70° C., 80° C., or 90° C., and then the emission value was measured. […] (FIG. 22), indicating a sufficient level of practical utility.

[7] = Specific activity of picALuc30 expressed in Escherichia coli versus secretion-expressed by COS-7 cells; format: biochemical; conditions: concentrations adjusted by Western blotting
Protocol: • (1) A DNA sequence coding for picALuc30 was inserted into a pET32 vector to prepare a plasmid. Transformation was carried out into Escherichia coli SHuffle T7 express lysY (New England Biolab). • (2) Escherichia coli from (1) was inoculated into an LB plate (containing […] of ampicillin). • (3) Next day, one colony was taken out, and cultured with shaking overnight at 30° C. in a test tube containing 2 mL of LB medium (containing […] of ampicillin). • (4) 1 mL of (3) was added to 100 mL of LB medium (containing […] of ampicillin), followed by shaking culture at 30° C. in a 500-mL flask until the absorbance OD600 reached about 0.4. • (5) When the absorbance OD600 reached about 0.4, 40 μL of 1-M isopropyl-β-thiogalactopyranoside was added, followed by overnight culture at 16° C. • (6) The bacterial cells were collected, followed by purification of the protein using HisTALON Buffer Set and TALON Metal Affinity Resin (both from Takara Bio Inc.). From 100 mL of the medium, 1.7 mg of picALuc30 was obtained.

[8] = Thermal stability of picALuc30 purified from Escherichia coli; format: physicochemical; conditions: expressed in Escherichia coli

B1: picALuc30: SEQ ID NO: 51; amino acids 54 to 175 of ALuc30 wt, without the N terminus and C terminus; 13 kDa luciferase (protein)
chain: KLPGKKLPLEVLKELEANAQKAGCTRGCLICLSHIKCTAKMKKWLPGRCESWEGDKETGQGGIGEAIVDIPEIPGFKELAPMEQFIAQVDLCADCTTGCLKGLANVKCSALLKKWLPSRCAG
modifications: picALuc30
notes: amino acids 54 to 175 of ALuc30 wt, without the N terminus and C terminus; 13 kDa luciferase
[1]; Experiment 2, coelenterazine 5 μM, medium of transfected COS-7 cells
  emission value: the same as or higher than that of ALuc30 wt
[1]; coelenterazine 0.5 μM
  emission values (rank order): NanoLuc®>>picALuc30>TurboLuc™>ALuc30 wt>GLuc
[1]; coelenterazine 5 μM
  emission values (rank order): ALuc30 wt=picALuc30>NanoLuc®>TurboLuc™>GLuc
[1]; secretion-expressed, substrate coelenterazine or coelenterazine h in a high concentration (summary of Experiment 5)
  emission value compared with NanoLuc and TurboLuc: equal to or higher than NanoLuc® and TurboLuc™
[2]; coelenterazine h 5 μM
  emission values (rank order): TurboLuc™=ALuc30 wt>>NanoLuc®>picALuc30>GLuc
[2]; coelenterazine h 25 μM
  emission values (rank order): picALuc30>>NanoLuc®=TurboLuc™=ALuc30 wt>>GLuc
[3]
  emission value: low as compared to NanoLuc® and TurboLuc™
[4]
  stability of protein termini (Flag-tag and His-tag detection): both termini remaining
[5]; Experiment 7
  maximum emission value: same maximum emission value as NanoLuc®
[5]; coelenterazine or coelenterazine h as substrate
  specific activity: the same
[6]; 10-minute incubation at 50° C.
  activity remained: ≥ 80%
[6]; 10-minute incubation at 60° C.
  activity remained: ≥ 80%
[6]; 10-minute incubation at 70° C.
  activity remained: ≥ 50%
[7]
  specific activity, secretion expressed by COS-7 cells versus prepared in Escherichia coli: approximately the same
[8]; 10-minute incubation at 60° C.
  activity after heat treatment: lost little activity
[8]; 10-minute incubation at 70° C.
  activity remained: ≥ 90%
[8]; 10-minute incubation at 80° C.
  activity remained: ≥ 80%
